Data: article PMC10873366, “DNA binding redistributes activation domain ensemble and accessibility in pioneer factor Sox2” (Nature Communications, 2023)

Biological target: T1, Sox2 C-terminal intrinsically disordered region (C-IDR)
T1 chain: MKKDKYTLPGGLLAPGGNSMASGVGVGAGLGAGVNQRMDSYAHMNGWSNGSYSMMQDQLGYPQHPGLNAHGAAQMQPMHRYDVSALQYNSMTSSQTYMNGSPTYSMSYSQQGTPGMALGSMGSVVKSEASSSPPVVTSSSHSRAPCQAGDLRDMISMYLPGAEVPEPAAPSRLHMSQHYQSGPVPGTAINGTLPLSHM
Experiment: NMR titration; 15N-labelled C-IDR titrated with unlabelled N-DBD; 1H15N HSQC chemical shift changes of highly perturbed residues fitted to a 1:1 binding equation; 20 mM NaH2PO4, 50 mM NaCl, 5 mM DTT, pH 5.5, 15 °C
Settings: both partners purified

Kd: 80 ± 4 µM
B1: Sox2 N-terminal domain and DBD (N-DBD) (domain or fragment)
chain: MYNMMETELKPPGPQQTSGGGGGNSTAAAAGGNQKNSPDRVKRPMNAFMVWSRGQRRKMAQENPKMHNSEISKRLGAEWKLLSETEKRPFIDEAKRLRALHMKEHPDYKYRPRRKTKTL
modifications: Limits are not printed. They are inferred from 109 expected HSQC peaks (119 residues minus 9 Pro and the N-terminal Met) and from the C-IDR starting at 120. The NMR sample was 15N(/13C)-labelled or …
